Results on 44 sequences are retold here after the supplement of paper PMC10724198.

Series [1] concerns Saccharomyces cerevisiae. Description: protein stability index of tFT-peptide fusion (C-terminal peptide) (PSI (0-1 scale)); higher = more stable (slower turnover). As to conditions: genetic background: wild type; temperature: 30 C.
Series [2] has as its system Saccharomyces cerevisiae. The series is described as above. Here is the method:
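MPS profiling in S. cerevisiae of the tFT-X12 degron library: putative degron peptides plus stable controls, 12 aa, fused to the C-terminus of a sfGFP-mCherry timer. Cells are FACS-sorted into 8 mCherry/sfGFP bins and deep-sequenced. PSI runs from 0 (unstable) to 1 (stable). Backgrounds are wild type, das1Δ and doa10Δ at 30 °C, and wild type, das1Δ, cdc34-1 and cdc53-1 at 37 °C; 2-3 technical replicates each.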

Setting [3] is: genetic background: cdc34-1, temperature: 37 C.
[4] abbreviates: genetic background: cdc53-1, temperature: 37 C.
Setting [5] is: genetic background: das1 deletion, temperature: 30 C.
[6] abbreviates: genetic background: das1 deletion, temperature: 37 C.
The mark [7] stands for this setting: genetic background: doa10 deletion, temperature: 30 C.
Setting [8] is: genetic background: wild type, temperature: 30 C.
Setting [9] is: genetic background: wild type, temperature: 37 C.

± gives the standard deviation of the averaged measurements.
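Note: PSI is a weighted mean of sequencing reads over stability bins, variants kept only with over 10 reads, mCherry proximal and sfGFP distal, peptide attached via GGGS linker.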

Take DSGMLDFLLMAW: the protein stability index in the series on Saccharomyces cerevisiae [1] came to 0.598 ± 0.16; in the series with Saccharomyces cerevisiae [2] (setting [3]), 0.541 ± 0.039; in the series with Saccharomyces cerevisiae [2] (setting [4]), 0.545 ± 0.015; in the series with Saccharomyces cerevisiae [2] (setting [5]) it was 0.432 ± 0.035; in the series with Saccharomyces cerevisiae [2] (setting [6]), 0.57175 ± 0.00049; with Saccharomyces cerevisiae [2] (setting [7]), 0.421 ± 0.011. Moreover, the protein stability index in the series on Saccharomyces cerevisiae [2] (setting [8]) amounted to 0.451 ± 0.013; in the series on Saccharomyces cerevisiae [2] (setting [9]) it was 0.53 ± 0.0056.

Regarding DSTLLYRPPSPA, the protein stability index worked out at 0.7089 ± 0.0008 with Saccharomyces cerevisiae [1]; 0.672 ± 0.032 in the series on Saccharomyces cerevisiae [2] (setting [3]); 0.713 ± 0.02 in the series with Saccharomyces cerevisiae [2] (setting [4]); 0.646 ± 0.019 in the series with Saccharomyces cerevisiae [2] (setting [5]); 0.7252 ± 0.0017 in the series with Saccharomyces cerevisiae [2] (setting [6]); 0.651 ± 0.021 with Saccharomyces cerevisiae [2] (setting [7]). Further, the protein stability index in the series on Saccharomyces cerevisiae [2] (setting [8]) is 0.637 ± 0.02; with Saccharomyces cerevisiae [2] (setting [9]) it was 0.683 ± 0.022.

On to DVVVIFGILCYC, for which the protein stability index came to 0.267 ± 0.013 with Saccharomyces cerevisiae [1]; 0.0711 ± 0.0034 in the series on Saccharomyces cerevisiae [2] (setting [3]); 0.16 ± 0.0049 in the series with Saccharomyces cerevisiae [2] (setting [4]); 0.156 ± 0.045 in the series with Saccharomyces cerevisiae [2] (setting [5]); 0.3173 ± 0.0014 in the series on Saccharomyces cerevisiae [2] (setting [6]); 0.125 ± 0.014 with Saccharomyces cerevisiae [2] (setting [7]). Further, the values for the protein stability index in the series with Saccharomyces cerevisiae [2] (setting [8]) and with Saccharomyces cerevisiae [2] (setting [9]) were 0.15 ± 0.032 and 0.263 ± 0.0032, respectively.

As to FFCRWGSTVTLL, the protein stability index with Saccharomyces cerevisiae [2] (setting [3]) was found to be 0.604 ± 0.034; in the series on Saccharomyces cerevisiae [2] (setting [4]), 0.696 ± 0.013; in the series on Saccharomyces cerevisiae [2] (setting [5]), 0.557 ± 0.014; with Saccharomyces cerevisiae [2] (setting [6]) it was 0.647 ± 0.037; in the series with Saccharomyces cerevisiae [2] (setting [7]), 0.4076 ± 0.001; with Saccharomyces cerevisiae [2] (setting [8]), 0.427 ± 0.01. This sequence gave a protein stability index in the series on Saccharomyces cerevisiae [2] (setting [9]) of 0.559 ± 0.011.

Turning to GAVRGWGWVSFV, the protein stability index in the series with Saccharomyces cerevisiae [2] (setting [3]) is 0.622 ± 0.0072; with Saccharomyces cerevisiae [2] (setting [4]), 0.789 ± 0.011; in the series on Saccharomyces cerevisiae [2] (setting [5]), 0.595 ± 0.025; with Saccharomyces cerevisiae [2] (setting [6]), 0.71792 ± 4.5e-05; in the series with Saccharomyces cerevisiae [2] (setting [7]), 0.357 ± 0.054; in the series with Saccharomyces cerevisiae [2] (setting [8]), 0.317 ± 0.04. Besides, the protein stability index in the series on Saccharomyces cerevisiae [2] (setting [9]) amounted to 0.436 ± 0.0078.

In the case of GFYQSGGLVVVV, the protein stability index was 0.6489 ± 0.0026 with Saccharomyces cerevisiae [2] (setting [3]); 0.674 ± 0.014 in the series on Saccharomyces cerevisiae [2] (setting [4]); 0.501 ± 0.03 in the series on Saccharomyces cerevisiae [2] (setting [5]); 0.663 ± 0.0058 with Saccharomyces cerevisiae [2] (setting [6]); 0.482 ± 0.017 with Saccharomyces cerevisiae [2] (setting [7]); 0.515 ± 0.013 in the series on Saccharomyces cerevisiae [2] (setting [8]). The same sequence yielded a protein stability index with Saccharomyces cerevisiae [2] (setting [9]) of 0.64 ± 0.028.

As for GGGGGGGDVLVW, the protein stability index in the series on Saccharomyces cerevisiae [2] (setting [3]) was determined as 0.265 ± 0.04; in the series with Saccharomyces cerevisiae [2] (setting [4]), 0.363 ± 0.036; in the series on Saccharomyces cerevisiae [2] (setting [5]), 0.265 ± 0.037; in the series on Saccharomyces cerevisiae [2] (setting [6]), 0.426 ± 0.0099; in the series on Saccharomyces cerevisiae [2] (setting [7]), 0.202 ± 0.022; in the series with Saccharomyces cerevisiae [2] (setting [8]), 0.244 ± 0.034. Further, in the series with Saccharomyces cerevisiae [2] (setting [9]), the protein stability index came to 0.392 ± 0.0048.

Take LPLPPPGSPPPL: the protein stability index with Saccharomyces cerevisiae [2] (setting [3]) was determined as 0.653 ± 0.032; in the series with Saccharomyces cerevisiae [2] (setting [4]), 0.744 ± 0.036; in the series with Saccharomyces cerevisiae [2] (setting [5]) it was 0.668 ± 0.021; in the series with Saccharomyces cerevisiae [2] (setting [6]), 0.726 ± 0.0077; in the series on Saccharomyces cerevisiae [2] (setting [7]), 0.659 ± 0.014; in the series with Saccharomyces cerevisiae [2] (setting [8]), 0.682 ± 0.033. In the series on Saccharomyces cerevisiae [2] (setting [9]), this sequence displayed a protein stability index of 0.698 ± 0.0069.

Regarding PSLVFLPPPPPR, the protein stability index in the series with Saccharomyces cerevisiae [2] (setting [3]) amounted to 0.673 ± 0.04; in the series with Saccharomyces cerevisiae [2] (setting [4]), 0.7452 ± 0.0056; in the series on Saccharomyces cerevisiae [2] (setting [5]), 0.677 ± 0.0098; in the series with Saccharomyces cerevisiae [2] (setting [6]) it was 0.7475 ± 0.0016; with Saccharomyces cerevisiae [2] (setting [7]) it was 0.681 ± 0.018; with Saccharomyces cerevisiae [2] (setting [8]), 0.701 ± 0.025. Moreover, the protein stability index in the series with Saccharomyces cerevisiae [2] (setting [9]) stood at 0.72099 ± 0.00046.

For the sequence RDTTQRRRKTAA, the protein stability index in the series on Saccharomyces cerevisiae [2] (setting [3]) turned out to be 0.657 ± 0.039; in the series on Saccharomyces cerevisiae [2] (setting [4]) it was 0.662 ± 0.026; with Saccharomyces cerevisiae [2] (setting [5]), 0.6608 ± 0.0048; with Saccharomyces cerevisiae [2] (setting [6]), 0.6583 ± 0.005; with Saccharomyces cerevisiae [2] (setting [7]), 0.443 ± 0.0084; with Saccharomyces cerevisiae [2] (setting [8]), 0.448 ± 0.012. This sequence also displayed a protein stability index with Saccharomyces cerevisiae [2] (setting [9]) of 0.60824 ± 0.00016.

As for RWRLWGGWWVVG, the protein stability index came out at 0.601 ± 0.028 in the series on Saccharomyces cerevisiae [2] (setting [3]); 0.727 ± 0.012 in the series with Saccharomyces cerevisiae [2] (setting [4]); 0.579 ± 0.022 in the series with Saccharomyces cerevisiae [2] (setting [5]); 0.718 ± 0.017 with Saccharomyces cerevisiae [2] (setting [6]); 0.191 ± 0.019 in the series on Saccharomyces cerevisiae [2] (setting [7]); 0.196 ± 0.022 in the series on Saccharomyces cerevisiae [2] (setting [8]). Besides, the protein stability index with Saccharomyces cerevisiae [2] (setting [9]) is 0.419 ± 0.015.

With TGPVFVSFRLLH, the protein stability index with Saccharomyces cerevisiae [2] (setting [3]) was found to be 0.703 ± 0.065; with Saccharomyces cerevisiae [2] (setting [4]), 0.752 ± 0.012; with Saccharomyces cerevisiae [2] (setting [5]), 0.67 ± 0.066; in the series with Saccharomyces cerevisiae [2] (setting [6]) it was 0.737 ± 0.024; in the series on Saccharomyces cerevisiae [2] (setting [7]), 0.384 ± 0.015; with Saccharomyces cerevisiae [2] (setting [8]), 0.405 ± 0.035. For the same sequence, the protein stability index with Saccharomyces cerevisiae [2] (setting [9]) was 0.627 ± 0.0095.

Turning to TLDCKFGRGGIG, the protein stability index is 0.309 ± 0.015 in the series on Saccharomyces cerevisiae [2] (setting [3]); 0.423 ± 0.013 with Saccharomyces cerevisiae [2] (setting [4]); 0.332 ± 0.0069 in the series on Saccharomyces cerevisiae [2] (setting [5]); 0.401 ± 0.017 in the series on Saccharomyces cerevisiae [2] (setting [6]); 0.325 ± 0.0077 in the series with Saccharomyces cerevisiae [2] (setting [7]); 0.321 ± 0.013 with Saccharomyces cerevisiae [2] (setting [8]). The protein stability index in the series with Saccharomyces cerevisiae [2] (setting [9]) is 0.392 ± 0.0016.

Regarding WLFAILPSRLIA, the protein stability index in the series with Saccharomyces cerevisiae [2] (setting [3]) stood at 0.284 ± 0.021; in the series on Saccharomyces cerevisiae [2] (setting [4]) it was 0.373 ± 0.0075; with Saccharomyces cerevisiae [2] (setting [5]) it was 0.344 ± 0.035; in the series on Saccharomyces cerevisiae [2] (setting [6]), 0.488 ± 0.0068; in the series on Saccharomyces cerevisiae [2] (setting [7]) it was 0.0644 ± 0.0086; with Saccharomyces cerevisiae [2] (setting [8]), 0.0673 ± 0.012. In the series on Saccharomyces cerevisiae [2] (setting [9]), this sequence returned a protein stability index of 0.0638 ± 0.0027.

As to YPHQRGRPDAHH, the protein stability index in the series with Saccharomyces cerevisiae [1] turned out to be 0.71 ± 0.021.

As to YPLRCPITATHA, in the series on Saccharomyces cerevisiae [1], the protein stability index turned out to be 0.616 ± 0.099.

As for YPPPRPDLPLLQ, the protein stability index with Saccharomyces cerevisiae [1] turned out to be 0.679 ± 0.016.

In the series with Saccharomyces cerevisiae [1], YPSRSPFLSLSC had a protein stability index of 0.683 ± 0.028.

YPTSLLHLHSPP returned a protein stability index in the series with Saccharomyces cerevisiae [1] of 0.708 ± 0.044.

In the series on Saccharomyces cerevisiae [1], YQLEDSNEKVEN registered a protein stability index of 0.712 ± 0.085.

The sequence YRKAAGSQDRAV had a protein stability index with Saccharomyces cerevisiae [1] of 0.663 ± 0.018.

In the series on Saccharomyces cerevisiae [1], YRVPWIVESFVD yielded a protein stability index of 0.751 ± 0.087.

For the sequence YSGFYIRRGLTW, the protein stability index in the series on Saccharomyces cerevisiae [1] was 0.689 ± 0.011.

In the series on Saccharomyces cerevisiae [1], YSILYRMQNSKI returned a protein stability index of 0.696 ± 0.021.

In turn, YSKVGCRHSYHT showed a protein stability index in the series with Saccharomyces cerevisiae [1] of 0.669 ± 0.017.

Consider YSPAYDHLRPDH, for which the protein stability index in the series on Saccharomyces cerevisiae [1] turned out to be 0.7034 ± 0.0069.

YSPFCPSASPWA had a protein stability index in the series with Saccharomyces cerevisiae [1] of 0.712 ± 0.023.

In the series with Saccharomyces cerevisiae [1], YSPSPPSFAFSS had a protein stability index of 0.801 ± 0.079.

As to YSPVPPPTRPPL, the protein stability index in the series with Saccharomyces cerevisiae [1] worked out at 0.7069 ± 0.0017.

Consider YSREVVGKQLFM, for which the protein stability index in the series with Saccharomyces cerevisiae [1] is 0.693 ± 0.027.

In the case of YSRYAASYSMVV, the protein stability index in the series with Saccharomyces cerevisiae [1] came out at 0.688 ± 0.021.

YTGRFDSSDIWY yielded a protein stability index in the series on Saccharomyces cerevisiae [1] of 0.818 ± 0.057.

Turning to YTGVCEWRANVH, in the series with Saccharomyces cerevisiae [1], the protein stability index came out at 0.689 ± 0.0096.

YTKTGRQRHHCR: in the series on Saccharomyces cerevisiae [1], the protein stability index amounted to 0.677 ± 0.011.

Sequence YTSELPVLARRH displayed a protein stability index in the series with Saccharomyces cerevisiae [1] of 0.633 ± 0.021.

Regarding YVALSTGPLRTP, the protein stability index with Saccharomyces cerevisiae [1] is 0.6828 ± 0.0065.

Take YVELTGRITTKL: the protein stability index with Saccharomyces cerevisiae [1] stood at 0.716 ± 0.038.

Turning to YVEVIDERYPCV, the protein stability index with Saccharomyces cerevisiae [1] stood at 0.757 ± 0.021.

In the case of YVGLAAGEVGMG, the protein stability index in the series with Saccharomyces cerevisiae [1] is 0.661 ± 0.02.

As for YVQFISFAGTRP, the protein stability index with Saccharomyces cerevisiae [1] was found to be 0.724 ± 0.025.

Regarding YVSHLLMVGRFI, in the series with Saccharomyces cerevisiae [1], the protein stability index came out at 0.616 ± 0.01.

Sequence YWLCITECHIRK had a protein stability index in the series with Saccharomyces cerevisiae [1] of 0.541 ± 0.0092.

The sequence YYEVVCPLQHRI gave a protein stability index in the series with Saccharomyces cerevisiae [1] of 0.46 ± 0.16.

In the series with Saccharomyces cerevisiae [1], YYGCGAFGFSVR displayed a protein stability index of 0.695 ± 0.014.
